Reference: publication PMC4718636, “Recombinant hTRBP and hPACT Modulate hAgo2-Catalyzed siRNA-Mediated Target RNA Cleavage In Vitro” (PLoS ONE, 2016)

Target: T1, GST-hAgo2 (human Argonaute2) (human, UniProt Q9UKV8 1-859)
T1 construct: human Argonaute2 (hAgo2); In the cleavage assays hAgo2 stood with siRNA (hAgo2/siRNA complex); also called wt-hAgo2; hArgonaute2; source: expressed and purified as previously described [27]
Assay: pull-down; pulldown assays shown only in Figure I of the S1 Supporting Information File; format not given
Settings: both partners purified

T1 sequence (Q9UKV8 whole entry): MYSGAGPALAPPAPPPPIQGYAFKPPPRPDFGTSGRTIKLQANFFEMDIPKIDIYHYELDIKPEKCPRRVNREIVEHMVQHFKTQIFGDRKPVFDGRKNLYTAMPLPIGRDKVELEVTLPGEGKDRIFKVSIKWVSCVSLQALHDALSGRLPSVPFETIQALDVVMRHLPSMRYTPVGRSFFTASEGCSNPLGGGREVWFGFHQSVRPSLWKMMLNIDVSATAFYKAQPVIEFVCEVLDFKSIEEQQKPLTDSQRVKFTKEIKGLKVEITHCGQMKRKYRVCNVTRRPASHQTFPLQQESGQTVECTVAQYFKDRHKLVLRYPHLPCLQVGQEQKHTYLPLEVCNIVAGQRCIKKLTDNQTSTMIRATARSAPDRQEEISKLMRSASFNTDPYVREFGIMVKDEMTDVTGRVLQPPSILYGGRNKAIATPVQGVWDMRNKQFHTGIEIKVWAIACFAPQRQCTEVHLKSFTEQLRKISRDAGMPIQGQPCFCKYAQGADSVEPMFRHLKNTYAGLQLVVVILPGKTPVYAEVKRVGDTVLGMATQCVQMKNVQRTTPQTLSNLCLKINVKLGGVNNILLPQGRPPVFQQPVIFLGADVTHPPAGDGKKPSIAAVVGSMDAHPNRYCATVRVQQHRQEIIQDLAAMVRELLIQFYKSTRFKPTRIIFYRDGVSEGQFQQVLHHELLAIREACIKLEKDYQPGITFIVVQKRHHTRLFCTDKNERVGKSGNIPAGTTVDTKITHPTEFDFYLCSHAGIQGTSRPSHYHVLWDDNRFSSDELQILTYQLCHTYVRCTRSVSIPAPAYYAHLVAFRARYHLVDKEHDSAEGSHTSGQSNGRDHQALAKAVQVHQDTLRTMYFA

binding result: binds
B1: His-hPACT (human protein activator of protein kinase R), purified under native conditions (natural protein, UniProt O75569 1-313, looked up)
chain: MSQSRHRAEAPPLEREDSGTFSLGKMITAKPGKTPIQVLHEYGMKTKNIPVYECERSDVQIHVPTFTFRVTVGDITCTGEGTSKKLAKHRAAEAAINILKANASICFAVPDPLMPDPSKQPKNQLNPIGSLQELAIHHGWRLPEYTLSQEGGPAHKREYTTICRLESFMETGKGASKKQAKRNAAEKFLAKFSNISPENHISLTNVVGHSLGCTWHSLRNSPGEKINLLKRSLLSIPNTDYIQLLSEIAKEQGFNITYLDIDELSANGQYQCLAELSTSPITVCHGSGISCGNAQSDAAHNALQYLKIIAERK
notes: No removal of the His tag is described; also called hPACT^nat; source: E. coli BL21 (DE3), purified under native conditions (Talon Superflow)
